According to patent CN109627331A:
“And” between values parts separate entries of the source, which are not always exact repeats. Equal entries are not always repeated.

Columns and labels:
[1] = biological target: 犬细小病毒 (canine parvovirus, whole virus) (犬细小病毒 (canine parvovirus)); assay: cell-based or functional assay
[2] = biological target: 犬细小病毒VLPs (canine parvovirus virus-like particles) (犬细小病毒 (canine parvovirus)); assay: indirect ELISA, VLPs coated at 1μg/ml, hybridoma supernatant
[3] = biological target: 犬细小病毒VLPs (canine parvovirus virus-like particles) (犬细小病毒 (canine parvovirus)); assay: non-competitive indirect ELISA, CPV-VLPs coated at 1, 0.5, 0.25, 0.125 μg/ml; mean of 6 Ka values

B1: 鼠源CPV基因工程抗体 (recombinant mouse anti-canine parvovirus antibody expressed in HEK-293 cells) (antibody, V domains shown)
VH: QVQLKQSGPGLVQPSQSLSITCTVSGFSLTSYGVHWVRHSPGKGLEWLGVIWSGGSTDYNAAFISRLSITKDNSKTQVFFKMNSLQANDTAIYYCARNSFYGSTPGSYAMDYWGQGTSVTVSS
VL: QIVLTQSPASLSMAIGEKVTIRCIASTDIDDDMNWYQQKPGKPPNLLISEGNTLRPGVPSRFSSSGYGTDFVFTIQNMLSEDVADYYCLQSDNLPLTFGAGTKLELK
**Q.** Which results are given for B1?
**A.** 中和效价 [1]: 4 titre (1:x) and 8 titre (1:x); 血凝抑制效价 [1]: 8 titre (1:x)

B2: CPV单克隆抗体 (mouse anti-canine parvovirus monoclonal antibody from hybridoma supernatant) (antibody, V domains shown)
VH: QVQLKQSGPGLVQPSQSLSITCTVSGFSLTSYGVHWVRHSPGKGLEWLGVIWSGGSTDYNAAFISRLSITKDNSKTQVFFKMNSLQANDTAIYYCARNSFYGSTPGSYAMDYWGQGTSVTVSS
VL: QIVLTQSPASLSMAIGEKVTIRCIASTDIDDDMNWYQQKPGKPPNLLISEGNTLRPGVPSRFSSSGYGTDFVFTIQNMLSEDVADYYCLQSDNLPLTFGAGTKLELK
**Q.** What does the source list for B2?
**A.** OD450 [2]: 1.07 OD450; Ka [3]: 1.02e+11 M⁻¹
